Assay results taken from patent US20220289837A1 (VIB VZW, published 2022).
One block for each binder: values may come before it.

Key:
[1] = target: T1, Stabilized human CFTR (stab-CFTR: 2PT/ΔRI/R1048A_1172X) (human, UniProt P13569 1-1171, limits assumed); assay: cell-based or functional assay
[2] = target: T1, Stabilized human CFTR (stab-CFTR: …); assay: cell-based or functional assay; remark: listed apart in the source
[3] = target: T2, 2PT-NBD1 (human CFTR nucleotide-binding domain 1, residues 387-646, with S492P, A534P, I539T) (human, UniProt P13569 388-646, biotinylated for the ELISA (sites not given)); assay: ELISA, biotinylated 2PT-NBD1 on avidin-coated plate, nanobody titrated, anti-His detection; column head 'pEC50 (M)'
T2 construct: N-terminal His6-SUMO tag removed with Ulp1; In the T2a-T4 and T27 crystals the domain was cut by papain or subtilisin
Method: (§1) (a) Nanobody binding to 2PT-NBD1 measured by ELISA. Biotinylated 2PT-NBD1 was immobilized on avidin-coated plates and incubated with increasing concentration of each nanobody. Binding of nanobody was followed by immunodetection of the His-tag (see Methods). Representative curve of 3 independent experiments is shown. Error bars represent the standard deviation (SD) of duplicates. Data were normalized to maximum signal for each nanobody separately. (b) Nanobody binding to F508del-2PT-NBD1 measured by ELISA as described in panel a. (c) Nanobody T4 binding to 2PT-NBD1 and F508del-2PT-NBD1. Data were normalized to maximum signal of T4 binding to 2PT-NBD1. (d) Nanobody T8 binding to 2PT-NBD1 and F508del-2PT-NBD1. Data were normalized to maximum signal of T8 binding to 2PT-NBD1.
(§2) For dose-response assays, Nunc MaxiSorp 96-well plates (ThermoScientific), were coated with 5 μg/ml NeutrAvidin Biotin-Binding protein (ThermoScientific) overnight at 4° C. and blocked 2 h at room temperature (RT) with 2% milk in phosphate-buffered saline (PBS). Each new reagent addition was preceded by three washes with 200 μl of NBD1 buffer (20 mM HEPES pH 7.5, 150 mM NaCl, and 10% (w/v) glycerol, 10% (w/v) ethylene glycol, 2 mM ATP, 3 mM MgCl₂). Then, biotinylated purified NBD1 proteins at 5 μg/ml were immobilized 30 min at RT followed by 1 h RT incubation with 100 μl various concentrations (0-20 μg/ml) of purified nanobodies. Signal detection was followed using His-tag specific antibody (Invitrogen, catalogue number: MA1-135, 1:3000 dilution) to detect the nanobodies and secondary antibody anti-mouse coupled to horse radish peroxidase (HRP) (Millipore, catalogue number: AP308P, 1:5000 dilution). 50 μl of 1-Step UltraTMB-ELISA (ThermoScientific) was used as a substrate for the peroxidase and intensity of the reaction was proportional to absorbance measured at 450 nm with SynergyMx (BioTek) after addition of 50 μl H₂SO₄ at 1M.

F508del-2PT-NBD1 = target: T3, F508del-2PT-NBD1 (human, UniProt P13569 388-646, biotinylated for the ELISA (sites not given)); assay: ELISA, biotinylated F508del-2PT-NBD1 on avidin-coated plate, nanobody titrated, anti-His detection
T3 construct: also called F508del-2PT-NBD1 mutant
Method: as §1, §2

[4] = target: T2, 2PT-NBD1 (human CFTR nucleotide-binding …); assay: isothermal titration calorimetry, nanobody titrated into 2PT-NBD1 at 20 °C, one-site model
Method: (§3) Isothermal titration calorimetry (ITC) was used to characterize the thermodynamic parameters of the binding (FIG. 1e and FIG. 9). […] These KD values are similar to those measured for other in vivo matured camelid heavy-chain antibodies interacting with their ligands^{[20]}. The thermodynamic parameters of the interaction of nanobodies with 2PT-NBD1 were determined based on these ITC measurements (FIG. 1e and FIG. 9).
(§4) Interactions between nanobodies and 2PT-NBD1 was carried out on NanoITC system (TA Instruments) in 0.165 ml cells at 20° C., 300 rpm syringe stirring. Proteins were extensively dialyzed in 20 mM Hepes buffer pH 7.5, 150 mM NaCl, 10% (w/v) glycerol, 10% (w/v) ethylene glycol, 2 mM ATP and 3 mM MgCl₂ for 16 h at 4° C. Heat of dilution from control experiments of each nanobody titrated into buffer was subtracted from the titration into 2PT-NBD1. Data were integrated analyzed with Origin 7.0 software (Origin Lab Corp.).

[5] = target: T2, 2PT-NBD1 (human CFTR nucleotide-binding …); assay: ITC, nanobody titrated into 2PT-NBD1 at 20 °C, one-site model
Method: as §3, §4

[6] = target: T4, 2PT-F508del-CFTR expressed in BHK-21 cells (human, UniProt P13569 1-1480, I539T; S492P; A534P; F508del); assay: flow cytometry on permeabilised BHK-21 cells expressing 2PT-F508del-CFTR, anti-tag antibody and Alexa Fluor 488 secondary
T4 construct: Full-length F508del CFTR stabilized by the three point mutations; permeabilized cells in flow cytometry
Source text: Graph depicts one representative of at least three independent experiments. (FIG. 4F) Average median fluorescence (fold over negative control) for each of the three representative nanobodies as illustrated in (FIG. 4D) and (FIG. 4E). Quantification of at least 3 independent experiments (±SEM). (g) Immunoblot of CFTR from solubilized BHK-21 cells pulled-down with His-tagged nanobodies, including a non-CFTR nanobody as a control. Eluted nanobodies-CFTR complexes were separated by SDS-PAGE and presence of CFTR was detected with mAb 596 antibody after immunoblotting. Arrows indicate the mature (band C) and immature (band B) forms of CFTR. Representative of at least 3 independent experiments. (FIG. 4H) Flow cytometry analysis of nanobodies T2a, T8 and G3a on BHK-21 cells expressing 2PT-F508del showing increased labelling for T2a and G3a, but not T8. (FIG. 4I) Quantification of data illustrated in […]. Average of 3 independent experiments (±SEM).
Parental BHK-21 cells (ATCC; CCL-10) and cells stably overexpressing human wt-CFTR^{[43,44,47]} or 2PT-F508del-CFTR, as described above, were permeabilized with 0.01% n-Dodecyl-β-D-Maltopyranoside β-DDM—Inalco) at least for 2 h on ice. In the meantime, cells were incubated with 50 μg/ml nanobodies and DRAQ7 (0.3 μM—Biostatus) to monitor the permeabilization state. Nanobody binding was detected by using His-tag specific antibody (Invitrogen, catalogue number MA1-135, 1 μg/ml) or Myc-tag specific antibody (Invitrogen, catalogue number 13-2500, 2 μg/ml) and then anti-mouse-Alexa Fluor 488 (Invitrogen, catalogue number A11001, 1.3 μg/ml) at least for 30 min on ice. Cells were washed one time between each step by centrifugation (200×g for 5 min at 4° C.). All incubations (100 μl) and washes (1.5 ml) were performed in PBS with 6% fetal bovine serum (FBS) and 0.01%13-DDM on ice. Cells fluorescence was measured with Gallios Flow Cytometer (Beckman Coulter). Data were analyzed with Kaluza software.

[7] = target: Purified human wt-CFTR (His10-SUMO*-CFTRFLAG-EGFP), PKA phosphorylated (human, UniProt P13569 1-1480, PKA phosphorylated (sites not given)); assay: cell-based or functional assay
[8] = target: T2, 2PT-NBD1 (human CFTR nucleotide-binding …); assay: cell-based or functional assay
[9] = target: T5, 2PT-NBD1-RE (2PT-NBD1 with residues 387-678, containing the regulatory extension) (human, UniProt P13569 387-678, biotinylated for the ELISA (sites not given)); assay: ELISA, biotinylated 2PT-NBD1-RE on avidin-coated plate, D12 titrated
Source text: (§5) The location of these nanobodies completely overlaps (FIG. 11a) with that of the C-terminal regulatory extension (RE) observed in previously published structures of NBD1^{[25,26].} The RE segment, comprising residues 654-673 was removed from the 2PT-NBD1 construct used for immunization and characterization. While the functional role of the RE is still unclear, it has been described to be a very mobile domain^{[27]}. […] This is consistent with RE being a dynamic region of CFTR.
as §2, with “Signal detection was followed using His-tag specific antibody (Invitrogen, catalogue number: MA1-135, 1:3000 dilution) to detect the nanobodies and secondary antibody anti-mouse coupled to horse radish peroxidase (HRP) (Millipore, catalogue number: AP308P, 1:5000 dilution).” left out

[10] = target: T2, 2PT-NBD1 (human CFTR nucleotide-binding …); assay: ELISA, biotinylated 2PT-NBD1 on avidin-coated plate, D12 titrated
Source text: as §5
as §2, with “Signal detection was followed using His-tag specific antibody (Invitrogen, catalogue number: MA1-135, 1:3000 dilution) to detect the nanobodies and secondary antibody anti-mouse coupled to horse radish peroxidase (HRP) (Millipore, catalogue number: AP308P, 1:5000 dilution).” left out

[11] = target: T2, 2PT-NBD1 (human CFTR nucleotide-binding …); assay: ELISA, biotinylated 2PT-NBD1 on avidin-coated plate, T27 titrated
Source text: as §5
as §2, with “Signal detection was followed using His-tag specific antibody (Invitrogen, catalogue number: MA1-135, 1:3000 dilution) to detect the nanobodies and secondary antibody anti-mouse coupled to horse radish peroxidase (HRP) (Millipore, catalogue number: AP308P, 1:5000 dilution).” left out

[12] = target: T5, 2PT-NBD1-RE (2PT-NBD1 with residues …); assay: ELISA, biotinylated 2PT-NBD1-RE on avidin-coated plate, T27 titrated
Source text: as §5
as §2, with “Signal detection was followed using His-tag specific antibody (Invitrogen, catalogue number: MA1-135, 1:3000 dilution) to detect the nanobodies and secondary antibody anti-mouse coupled to horse radish peroxidase (HRP) (Millipore, catalogue number: AP308P, 1:5000 dilution).” left out

T2 sequence (P13569 388-646 V470M/S492P/A534P/I539T limits assumed): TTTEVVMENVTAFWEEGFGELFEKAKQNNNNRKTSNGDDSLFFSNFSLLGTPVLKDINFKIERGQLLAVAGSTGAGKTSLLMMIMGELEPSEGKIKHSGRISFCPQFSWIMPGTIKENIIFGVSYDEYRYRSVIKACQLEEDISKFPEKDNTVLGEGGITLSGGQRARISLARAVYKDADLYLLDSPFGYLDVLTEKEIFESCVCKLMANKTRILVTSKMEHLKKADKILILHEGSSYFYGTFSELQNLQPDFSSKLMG
T3 sequence (P13569 other isoform, or with tags, fused parts or gaps limits assumed, stated change not applied): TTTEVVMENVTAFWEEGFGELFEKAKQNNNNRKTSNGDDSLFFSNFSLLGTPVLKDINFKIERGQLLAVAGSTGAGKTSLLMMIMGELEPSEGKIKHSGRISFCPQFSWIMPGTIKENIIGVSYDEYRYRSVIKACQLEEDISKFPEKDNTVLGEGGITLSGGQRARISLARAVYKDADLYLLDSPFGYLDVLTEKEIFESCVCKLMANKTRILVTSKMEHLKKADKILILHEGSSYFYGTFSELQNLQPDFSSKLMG
T5 sequence (P13569 other isoform, or with tags, fused parts or gaps limits assumed): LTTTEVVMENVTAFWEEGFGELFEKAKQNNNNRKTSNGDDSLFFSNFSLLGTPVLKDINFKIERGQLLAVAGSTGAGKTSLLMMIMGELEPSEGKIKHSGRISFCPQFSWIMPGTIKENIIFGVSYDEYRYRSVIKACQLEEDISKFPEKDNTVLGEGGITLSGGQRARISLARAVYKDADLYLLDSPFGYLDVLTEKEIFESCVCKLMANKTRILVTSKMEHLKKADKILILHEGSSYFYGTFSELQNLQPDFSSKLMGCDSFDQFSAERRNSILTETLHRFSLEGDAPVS
T1 sequence (P13569 other isoform, or with tags, fused parts or gaps R1048A R1048A limits assumed): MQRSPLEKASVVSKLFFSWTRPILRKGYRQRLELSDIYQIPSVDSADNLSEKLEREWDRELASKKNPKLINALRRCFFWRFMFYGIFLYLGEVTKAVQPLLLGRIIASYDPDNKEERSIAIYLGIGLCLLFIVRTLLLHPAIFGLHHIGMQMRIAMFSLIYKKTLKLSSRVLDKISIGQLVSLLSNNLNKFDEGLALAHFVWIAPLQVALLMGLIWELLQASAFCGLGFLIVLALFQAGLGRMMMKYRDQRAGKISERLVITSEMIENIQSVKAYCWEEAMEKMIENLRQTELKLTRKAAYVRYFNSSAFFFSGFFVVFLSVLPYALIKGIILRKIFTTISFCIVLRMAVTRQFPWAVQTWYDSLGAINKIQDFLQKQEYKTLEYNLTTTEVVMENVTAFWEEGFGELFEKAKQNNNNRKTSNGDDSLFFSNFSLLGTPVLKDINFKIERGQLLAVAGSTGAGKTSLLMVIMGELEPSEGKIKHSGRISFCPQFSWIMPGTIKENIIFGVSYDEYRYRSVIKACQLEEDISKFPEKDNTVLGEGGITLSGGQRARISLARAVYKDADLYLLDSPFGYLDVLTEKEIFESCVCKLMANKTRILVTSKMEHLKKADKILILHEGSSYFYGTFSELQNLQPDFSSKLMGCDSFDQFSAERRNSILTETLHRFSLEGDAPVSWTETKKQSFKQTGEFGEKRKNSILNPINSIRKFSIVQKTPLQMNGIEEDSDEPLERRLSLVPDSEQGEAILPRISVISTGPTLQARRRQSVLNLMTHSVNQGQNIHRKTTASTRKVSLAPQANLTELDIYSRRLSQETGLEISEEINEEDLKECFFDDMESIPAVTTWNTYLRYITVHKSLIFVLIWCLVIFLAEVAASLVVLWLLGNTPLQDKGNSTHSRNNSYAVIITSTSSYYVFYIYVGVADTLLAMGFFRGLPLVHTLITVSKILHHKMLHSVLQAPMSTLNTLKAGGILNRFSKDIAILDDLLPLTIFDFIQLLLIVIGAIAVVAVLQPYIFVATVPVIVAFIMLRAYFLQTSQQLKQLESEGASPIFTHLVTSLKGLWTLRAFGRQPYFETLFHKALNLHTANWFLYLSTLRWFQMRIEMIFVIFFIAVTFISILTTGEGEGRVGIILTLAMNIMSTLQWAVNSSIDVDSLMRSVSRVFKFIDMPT
Sequence of Purified human wt-CFTR (His10-SUMO*-CFTRFLAG-EGFP), PKA phosphorylated (P13569 whole entry): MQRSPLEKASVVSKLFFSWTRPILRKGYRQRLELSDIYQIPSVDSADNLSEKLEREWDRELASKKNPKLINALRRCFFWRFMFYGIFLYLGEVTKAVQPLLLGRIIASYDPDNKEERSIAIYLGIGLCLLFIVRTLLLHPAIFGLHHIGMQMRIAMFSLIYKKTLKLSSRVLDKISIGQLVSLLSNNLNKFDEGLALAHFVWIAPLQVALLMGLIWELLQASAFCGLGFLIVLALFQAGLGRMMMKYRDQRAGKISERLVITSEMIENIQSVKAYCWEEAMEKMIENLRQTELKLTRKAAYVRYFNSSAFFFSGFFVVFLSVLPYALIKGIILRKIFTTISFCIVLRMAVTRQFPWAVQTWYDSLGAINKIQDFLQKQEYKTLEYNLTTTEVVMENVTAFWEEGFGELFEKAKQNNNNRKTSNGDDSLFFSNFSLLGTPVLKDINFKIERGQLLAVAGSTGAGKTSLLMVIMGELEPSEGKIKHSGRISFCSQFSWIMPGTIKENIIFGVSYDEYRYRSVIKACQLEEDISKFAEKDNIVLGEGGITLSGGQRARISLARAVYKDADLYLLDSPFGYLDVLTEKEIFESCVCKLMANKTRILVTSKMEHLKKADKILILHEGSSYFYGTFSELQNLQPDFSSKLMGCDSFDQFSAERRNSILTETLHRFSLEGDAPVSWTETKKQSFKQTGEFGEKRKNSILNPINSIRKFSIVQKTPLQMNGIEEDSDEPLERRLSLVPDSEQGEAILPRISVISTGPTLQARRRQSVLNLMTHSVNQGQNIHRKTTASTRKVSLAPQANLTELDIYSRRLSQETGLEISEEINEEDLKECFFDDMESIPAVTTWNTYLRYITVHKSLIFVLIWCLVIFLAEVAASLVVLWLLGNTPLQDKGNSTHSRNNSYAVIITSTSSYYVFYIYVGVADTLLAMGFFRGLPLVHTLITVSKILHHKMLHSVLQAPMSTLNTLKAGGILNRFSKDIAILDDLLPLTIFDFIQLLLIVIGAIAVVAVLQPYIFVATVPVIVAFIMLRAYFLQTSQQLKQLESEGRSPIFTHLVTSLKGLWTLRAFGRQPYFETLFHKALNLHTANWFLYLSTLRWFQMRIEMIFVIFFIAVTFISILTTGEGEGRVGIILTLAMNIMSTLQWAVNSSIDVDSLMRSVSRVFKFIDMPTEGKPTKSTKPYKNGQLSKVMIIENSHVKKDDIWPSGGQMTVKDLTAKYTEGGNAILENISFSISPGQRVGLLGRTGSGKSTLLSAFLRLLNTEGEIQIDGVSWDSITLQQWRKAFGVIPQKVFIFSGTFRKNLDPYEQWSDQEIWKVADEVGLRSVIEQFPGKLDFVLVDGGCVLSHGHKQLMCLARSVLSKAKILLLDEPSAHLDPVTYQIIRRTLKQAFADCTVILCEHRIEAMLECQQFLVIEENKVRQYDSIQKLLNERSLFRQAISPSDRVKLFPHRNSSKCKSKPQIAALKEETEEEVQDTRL
T4 sequence (P13569 other isoform, or with tags, fused parts or gaps I539T/S492P/A534P/F508del): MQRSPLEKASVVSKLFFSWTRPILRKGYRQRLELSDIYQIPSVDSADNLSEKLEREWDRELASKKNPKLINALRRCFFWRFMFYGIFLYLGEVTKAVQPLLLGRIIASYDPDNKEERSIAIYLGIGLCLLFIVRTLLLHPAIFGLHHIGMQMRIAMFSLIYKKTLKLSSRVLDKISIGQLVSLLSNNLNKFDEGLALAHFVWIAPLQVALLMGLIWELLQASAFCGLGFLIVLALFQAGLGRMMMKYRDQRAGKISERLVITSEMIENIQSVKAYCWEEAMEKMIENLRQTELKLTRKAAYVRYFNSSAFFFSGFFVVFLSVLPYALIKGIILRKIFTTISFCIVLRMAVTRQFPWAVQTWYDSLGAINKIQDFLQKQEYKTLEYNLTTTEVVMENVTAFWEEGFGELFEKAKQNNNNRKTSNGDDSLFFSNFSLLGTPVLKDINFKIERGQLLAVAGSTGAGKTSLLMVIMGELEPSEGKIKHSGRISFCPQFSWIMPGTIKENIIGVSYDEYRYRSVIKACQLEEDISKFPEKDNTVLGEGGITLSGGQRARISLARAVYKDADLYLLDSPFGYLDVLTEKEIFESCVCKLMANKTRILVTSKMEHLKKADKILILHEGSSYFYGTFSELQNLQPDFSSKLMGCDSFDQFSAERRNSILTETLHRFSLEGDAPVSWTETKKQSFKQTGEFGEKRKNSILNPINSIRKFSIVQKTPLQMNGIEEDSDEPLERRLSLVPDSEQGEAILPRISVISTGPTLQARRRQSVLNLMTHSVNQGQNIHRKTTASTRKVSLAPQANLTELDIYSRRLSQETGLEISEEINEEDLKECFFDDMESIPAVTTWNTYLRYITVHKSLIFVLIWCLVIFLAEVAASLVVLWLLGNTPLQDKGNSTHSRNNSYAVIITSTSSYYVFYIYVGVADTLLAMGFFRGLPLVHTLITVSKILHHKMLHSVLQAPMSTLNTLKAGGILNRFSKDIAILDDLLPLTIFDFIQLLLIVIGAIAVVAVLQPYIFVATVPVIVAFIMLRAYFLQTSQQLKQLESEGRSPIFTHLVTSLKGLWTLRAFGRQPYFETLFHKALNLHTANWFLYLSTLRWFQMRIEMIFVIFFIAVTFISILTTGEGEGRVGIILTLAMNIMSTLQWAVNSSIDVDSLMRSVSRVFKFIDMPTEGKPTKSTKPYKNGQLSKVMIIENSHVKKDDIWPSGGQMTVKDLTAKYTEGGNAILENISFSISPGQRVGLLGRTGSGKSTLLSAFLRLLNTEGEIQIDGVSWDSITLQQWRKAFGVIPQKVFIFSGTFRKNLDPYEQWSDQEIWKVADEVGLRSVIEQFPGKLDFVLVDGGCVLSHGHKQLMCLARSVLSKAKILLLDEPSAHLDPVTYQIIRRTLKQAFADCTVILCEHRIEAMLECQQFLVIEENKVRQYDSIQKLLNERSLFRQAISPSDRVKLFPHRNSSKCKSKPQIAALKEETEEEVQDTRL

pEC50 [3]: 5.8
EC50 (read off the curve) (F508del-2PT-NBD1): ~2000 nM
Kd [4]: 1100 nM
ΔG [5]: -7.98 kcal/mol
ΔH [5]: -11.4 kcal/mol
binding result [6]: binds
B2: Nanobody G3a (VHH, not shown: small tags and cut ends)
VHH: QVQLQESGGGLVQAGGSLRLSCTASGRAFSWYVMGWFRQAPGKEREFVATVSGNGSRRDYADSVKGRFTISRDNAKNTVYLQMNSLKPEDTAVYYCAASSTYYYTDPEKYDYWGQGTQVTVSS
notes: Llama nanobody, non-stabilizing; also called Nb G3a; G3a Nb

pEC50 [3]: 8.7
EC50 (read off the curve) [11]: ~3 nM
EC50 (read off the curve) (F508del-2PT-NBD1): ~2 nM
ATPase activity (% of PKA-phosphorylated CFTR) [7]: 30%
Kd [4]: 25 nM
ΔG [5]: -10.2 kcal/mol
ΔH [5]: -12.1 kcal/mol
EC50 (read off the curve) [12]: ~3 nM
B4: Nanobody T27 (VHH, not shown: small tags and cut ends)
VHH: QVQLQESGGGLEQPGGSLRLSCATSGVIFGINAMGWYRQAPGKQRELVATFTSGGSTNYADFVEGRFTISRDNAKNTVYLQMNGLRPEDTAVYYCHATVVVSRYGLTYDYWGQGTQVTVSS
notes: Llama nanobody; also called NbT27; T27 Nb
increase of Tm (thermal shift assay, DSF) [8]: 11.9 °C

More lines, now with the values behind:

B1: Nanobody T4 (VHH, not shown: small tags and cut ends)
VHH: QVQLQESGGGLVQAGGSLRLSCAASGSTFAIIAMGWYRQAPGKQRELVAVISTGDTRYADSVKGRFTISRDNAKNTVYLQMDSLRPEDTAVYYCNAAVQVRDYRNYWGQGTQVTVSS
Tm of stab-CFTR in complex with the nanobody (nanoDSF, first derivative of 350 nm fluorescence); 'stab-CFTR (51.4°C)', 'T4 (73.8°C)' alone [1]: 59.4 °C
thermostabilization (nanoDSF, Tm) [2]: 8 °C

B3: Nanobody D12 (VHH, not shown: small tags and cut ends)
VHH: QVQLQESGGGLVQAGSSLRLACAATGSIRSINNMGWYRQAPGKQRGMVAIITRVGNTDYADSVKGRFTISRDNAKNTVYLQMNSLKPEDTATYYCHAEITEQSRPFYLTDDYWGQGTQVTVSS
notes: Llama nanobody raised against 2PT-NBD1; produced in E. coli periplasm; also called Nb D12; D12 Nb
pEC50 [3]: 7.6
EC50 (read off the curve) (F508del-2PT-NBD1): ~10 nM
ATPase activity (% of PKA-phosphorylated CFTR) [7]: 50%
increase of Tm (thermal shift assay, DSF) [8]: 13.8 °C
EC50 (read off the curve) [9]: ~80 nM
EC50 (read off the curve) [10]: ~50 nM
